Measured values reported in patent US9797889B2, “Activation of bioluminescence by structural complementation” (Promega Corporation, priority 2013, dated 2017).

Columns and labels:
11S = 11S (Oplophorus gracilirostris, UniProt Q9GV45, A31E/A60N/A81I/D135N/F58L/F95D/G42A/G62A/G78A/G94A/G98A/H120P/I103V/I117V/I134L/K70R/L176M/L54V/L73R/L99Q/M102E/N171T/P142E/Q151K/Q38E/Q45L/V71I/Y165I); assay: Substrate effect on 11S/NLpep79 Kd (Example 55); assay type: binding; settings: saturating (50 uM) vs sub-saturating (5 uM) furimazine
5P = 5P (Oplophorus gracilirostris, UniProt Q9GV45, A31E/A60N/A81I/D135N/F95D/G42A/G62A/G78A/G94A/G98A/I117V/K70R/L176M/L54V/L99Q/M102K/N171T/P142E/Q151K/Q38E/Q45L/V71I/Y165I); assay: Titration of 5P with NLpep88-HT (Example 47); assay type: biochemical; settings: lower concentrations of NLpep88
Sequence of 5P (Q9GV45 other isoform, or with tags, fused parts or gaps with the stated changes): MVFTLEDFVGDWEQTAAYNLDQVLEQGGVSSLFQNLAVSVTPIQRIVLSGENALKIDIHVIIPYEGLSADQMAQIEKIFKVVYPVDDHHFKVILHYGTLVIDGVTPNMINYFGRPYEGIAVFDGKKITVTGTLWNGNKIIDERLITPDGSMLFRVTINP

[1] = target: wild-type non-luminescent polypeptide (Oplophorus gracilirostris, UniProt Q9GV45, A31E/A60N/A81I/F95D/I117V/K70R/L54V/L99Q/M102K/P142E/Q151K/Q38R/Q45L/V71I/Y165I); assay: NLpep mutant luminescence with wild-type NLpoly lysate (Examples 7, 8, 12, 13); settings: mutations based on alignment to fatty acid binding proteins
Sequence of wild-type non-luminescent polypeptide (Q9GV45 other isoform, or with tags, fused parts or gaps with the stated changes): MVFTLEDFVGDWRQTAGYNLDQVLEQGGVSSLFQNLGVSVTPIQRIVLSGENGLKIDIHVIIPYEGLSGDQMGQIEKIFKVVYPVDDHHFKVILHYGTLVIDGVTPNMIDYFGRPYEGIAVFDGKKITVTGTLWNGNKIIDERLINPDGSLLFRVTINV

NLpep79 = assay: Substrate specificity of NLpoly 5P and 11S with NLpep79 (Example 97); assay type: biochemical; settings: with NLpep79, 11S compared with 5P
Method: E. coli clarified lysates were prepared for NLpoly 5P or 11S as described previously. The NLpoly lysates were then serially diluted in steps of 10-fold into PBS+0.1% Prionex.

NLpep78-HT or NLpep79-HT = assay: NLpoly variant luminescence without NLpep, with NLpep78-HT or NLpep79-HT (Examples 62, 93); assay type: biochemical; settings: E. coli expression culture
Method: Single NLpoly variant colonies were inoculated with 200 uL minimal media and grown for 20 hrs at 37° C. on a shaker. 10 uL of the overnight culture were diluted into 190 uL fresh minimal media and grown for 20 hrs at 37° C. on a shaker. 10 uL of this overnight culture was then diluted into 190 uL auto-induction media (previously described) and grown for 18 hrs at 25° C. on a shaker. 10 uL of this expression culture was mixed with 40 uL of assay lysis buffer (previously described) without NLpep or NLpep78-HT (1:3,860 dilution) or NLpep79-HT (1:10,000 dilution) and shaken for 10 min at RT. 50 uL of NanoGlo+Fz was added and again shake for 10 min at RT. Luminescence was measured on GloMax® luminometer with 0.5 sec integration. FIGS. 105-107 illustrate the luminescence of various NLpolys in the absence of NLpep.
A single colony of various NLpolys were inoculated individually into 200 uL minimal media and grown for 20 hrs at 37° C. on shaker. […] 10 uL of this overnight culture was diluted into 190 uL auto-induction media (previously described) and grow for 18 hrs at 25° C. on shaker. 10 uL of the expression culture was mixed with 40 uL of assay lysis buffer (previously described) without NLpep or with NLpep78-HT (1:3,860 dilution) or NLpep79-HT (1:10,000 dilution).

[2] = Luminescence of NLpoly without NLpep (Example 57); assay type: biochemical; settings: E. coli clarified lysate, NanoGlo+Fz
Method: 50 uL of each lysate and 50 uL NanoGlo+Fz were mixed and incubated for 5 min RT. Luminescence was measured on GloMax® Multi+ with 0.5 sec integration.

[…] [3] = target: T1, […] (Oplophorus gracilirostris, UniProt Q9GV45); assay: Luminescence of non-luminescent polypeptide mutants upon complementation (Example 5, Table 4); settings: complementation with peptide […]; induced E. coli culture, NANOGLO reagent
[…] [4] = target: T1, […]; assay: as above; settings: complementation with peptide […]; induced E. coli culture, NANOGLO reagent; remark: listed apart in the source

Q: For NVTGYRLFKKISN [NLpep79], which “affinity between 11S and NLpep79” value (11S) is on record?
A: increase the affinity

Q: For NVSGWGLFKKISN [NLpep88], which “luminescence of 5P titrated with NLpep88-HT” value (5P) is on record?
A: no increase in luminescence above 5P alone

Q: Which “activity (luminescence) of single-mutation NLpep with wild-type NLpoly” value (from here on “activity (luminescence)”) [1] does the source give for DVTGWRLCERILA [NLpep2] here?
A: retains/improves activity

Q: With GVTAWRLCERILA [NLpep3] as the molecule, how does the “activity (luminescence)” value [1] read?
A: not likely to be tolerated

Q: With GVTGWRLCKRILA [NLpep4] as the molecule, how does the “activity (luminescence)” value [1] read?
A: retains/improves activity

Q: Which “activity (luminescence)” value [1] does the source give for GVTGWRLCERISA [NLpep5] here?
A: retains/improves activity

B1: 11S: NLpoly variant 11S (12S-51) (protein)
chain: MVFTLEDFVGDWEQTAAYNLDQVLEQGGVSSLLQNLAVSVTPIQRIVRSGENALKIDIHVIIPYEGLSADQMAQIEEVFKVVYPVDDHHFKVILPYGTLVIDGVTPNMLNYFGRPYEGIAVFDGKKITVTGTLWNGNKIIDERLITPDGSMLFRVTINS
Q: What does the source list for B1?
A: substrate specificity for furimazine (NLpep79): superior specificity for furimazine than 5P; luminescence of NLpoly variant without NLpep or with NLpep78 or NLpep79 (NLpep78-HT or NLpep79-HT): improved luminescence over the other variants; luminescence in the absence of NLpep relative to WT NLpoly [2]: ~500 fold

B2: L149M (protein)
chain: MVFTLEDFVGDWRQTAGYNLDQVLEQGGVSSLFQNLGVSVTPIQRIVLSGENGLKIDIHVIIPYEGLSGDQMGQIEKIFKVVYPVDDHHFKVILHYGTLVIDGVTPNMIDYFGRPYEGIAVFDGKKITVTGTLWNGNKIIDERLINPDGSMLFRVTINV
Q: For B2, which “luminescence relative to wild-type, RLU(mutant)/RLU(WT)” value ([…] [3]) is on record?
A: 2.16 RLU(mutant)/RLU(WT)

Q: What about the “luminescence relative to wild-type, RLU(mutant)/RLU(WT)” value ([…] [4]) of the same molecule?
A: 2.89 RLU(mutant)/RLU(WT)
